For this assay, the target named is rat GluA2igQ with a His8/Myc tag between residues 22 and 23 (rat). In words: AFM imaging of receptor-antibody complexes; receptors isolated by immunoaffinity chromatography from the total cellular pool, incubated with subunit- or tag-specific antibodies, adsorbed to mica at 0.04 nM, imaged in air in tapping mode; volumes of decorated particles and angles between two bound antibodies.

Usually stoichiometry N stands for a count of units in the complex or per binding partner. “rat GluA2igQ with a His8/Myc tag between residues 22 and 23 (receptor)” had a stoichiometry N of 4.

Source of the values: article PMC3724652.
